{"source": "patent US9555139B2", "about": "“Binding ligand linked drug delivery conjugates of tubulysins” (Endocyte, Inc., priority 2007, dated 2017)", "key": {"[1]": {"biological_target": "T1, folate receptors (FRs) (Homo sapiens, UniProt P15328)", "T1 construct": "FR-positive KB cells were heavily seeded into 24-well cell culture plates; endogenous in cells; host or cells: KB cells", "T1 sequence (P15328 25-234)": "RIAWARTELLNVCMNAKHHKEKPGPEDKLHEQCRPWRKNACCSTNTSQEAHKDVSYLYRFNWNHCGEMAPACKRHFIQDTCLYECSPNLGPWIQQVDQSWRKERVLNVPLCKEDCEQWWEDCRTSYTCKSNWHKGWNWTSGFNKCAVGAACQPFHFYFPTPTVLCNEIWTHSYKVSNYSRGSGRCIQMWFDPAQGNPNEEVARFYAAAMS", "experiment": "Relative affinity assay (3H-folic acid displacement on KB cells)", "format": "binding", "conditions": "10% serum/FDRPMI; folic acid set to 1", "procedure": "METHOD: Relative Affinity Assay. The affinity for folate receptors (FRs) relative to folate was determined according to a previously described method (Westerhof, G. R., J. H. Schornagel, et al. (1995) Mol. Pharm. 48: 459-471) with slight modification. Briefly, FR-positive KB cells were heavily seeded into 24-well cell culture plates and allowed to adhere to the plastic for 18 h. Spent incubation media was replaced in designated wells with folate-free RPMI (FFRPMI) supplemented with 100 nM ^3H-folic acid in the absence and presence of increasing concentrations of test article or folic acid. Cells were incubated for 60 min at 37° C. and then rinsed 3 times with PBS, pH 7.4. Five hundred microliters of 1% SDS in PBS, pH 7.4, were added per well. Cell lysates were then collected and added to individual vials containing 5 mL of scintillation cocktail, and then counted for radioactivity. Negative control tubes contained only the ^3H-folic acid in FFRPMI (no competitor). Positive control tubes contained a final concentration of 1 mM folic acid, and CPMs measured in these samples (representing non-specific binding of label) were subtracted from all samples."}, "[2]": {"experiment": "Serum binding, human serum", "format": "in vitro ADME", "procedure": "(§1) METHOD: Serum binding against different species. Compounds are tested with 30K NMWL, subjected to Microcon filtration (10,000 g for 30 minutes), and compounds are detected by HPLC."}, "[3]": {"experiment": "Toxicity as measured by weight loss / organ evaluation in tumor-bearing mice", "format": "in vivo", "procedure": "METHOD: Drug Toxicity determinations. Persistent drug toxicity was assessed by collecting blood via cardiac puncture and submitting the serum for independent analysis of blood urea nitrogen (BUN), creatinine, total protein, AST-SGOT, ALT-SGPT plus a standard hematological cell panel at Ani-Lytics, Inc. (Gaithersburg, Md.). In addition, histopathologic evaluation of formalin-fixed heart, lungs, liver, spleen, kidney, intestine, skeletal muscle and bone (tibia/fibula) were conducted by board-certified pathologists at Animal Reference Pathology Laboratories (ARUP; Salt Lake City, Utah).\nMETHOD: Toxicity as Measured by Weight Loss."}, "[4]": {"experiment": "Human serum stability", "format": "in vitro ADME", "source_text": "METHOD: Human serum stability."}, "[5]": {"experiment": "Serum binding against different species", "format": "in vitro ADME", "conditions": "human, dog, Balb/c mouse, rat, rabbit, fetal calf serum", "procedure": "as §1"}, "[6]": {"experiment": "Body weight change of Balb/c mice at doses above therapeutic doses (FIG. 14)", "conditions": "intravenous, three times in one week (FIG. 14)", "procedure": "METHOD: Toxicity as Measured by Weight Loss. The percentage weight change of the mice was determined in mice (5 mice/group) on selected days post-tumor inoculation (PTI), and graphed.\nEach dose was administered three times, every other day, as indicated by the arrows. EC0305 was administered at (Δ) 2 μmol/kg TIW; (∇) 2.5 μmol/kg TIW; and (□) 3 μmol/kg."}, "[7]": {"test_system": "s.c. tumors", "experiment": "Inhibition of tumor growth in mice (tumor model not stated, FIG. 9 and 11)", "format": "in vivo", "conditions": "tolerable and highly toxic dose levels (0.1, 0.2, 0.5 μmol/kg TIW), dosing terminated early", "procedure": "METHOD: Inhibition of Tumor Growth in Mice. Four to seven week-old mice (Balb/c or nu/nu strains) were purchased from Harlan Sprague Dawley, Inc. (Indianapolis, Ind.). Normal rodent chow contains a high concentration of folic acid (6 mg/kg chow); accordingly, mice used were maintained on the folate-free diet (Harlan diet #TD00434) for 1 week before tumor implantation to achieve serum folate concentrations close to the range of normal human serum. For tumor cell inoculation, 1×10^6 M109 cells (Balb/c strain) or 1×10^6 KB cells (nu/nu strain) in 100 μL were injected in the subcutis of the dorsal medial area. Tumors were measured in two perpendicular directions every 2-3 days using a caliper, and their volumes were calculated as 0.5×L×W^2, where L=measurement of longest axis in mm and W=measurement of axis perpendicular to L in mm. […] Dosing solutions were prepared fresh each day in PBS and administered through the lateral tail vein of the mice."}}}
{"smiles": "Nc1nc2ncc(CNc3ccc(C(=O)N[C@@H](CCC(=O)O)C(=O)O)cc3)nc2c(=O)[nH]1", "note": "[folic acid]", "values": [{"measurement": "relative affinity", "setting": "[1]", "result": 1}]}
{"smiles": "CCCC(=O)OCN(C(=O)[C@@H](NC(=O)[C@H]1CCCCN1C)C(C)CC)[C@H](C[C@@H](OC(C)=O)c1nc(C(=O)N[C@@H](Cc2ccc(O)cc2)C[C@H](C)C(=O)NNC(=O)OCCSSC[C@H](NC(=O)[C@H](CC(=O)O)NC(=O)[C@H](CCCNC(=N)N)NC(=O)[C@H](CC(=O)O)NC(=O)CC[C@H](NC(=O)c2ccc(NCc3cnc4nc(N)[nH]c(=O)c4n3)cc2)C(=O)O)C(=O)O)cs1)C(C)C", "note": "(stereo partly drawn) [EC0305]", "values": [{"measurement": "fraction unbound", "setting": "[2]", "result": 0.33}, {"measurement": "serum binding", "setting": "[2]", "result": 67, "unit": "%"}, {"measurement": "weight loss or major organ tissue degeneration", "setting": "[3]; Balb/c mice with M109 tumors (FIG. 8)", "result": "apparent absence of weight loss or major organ tissue degeneration"}, {"measurement": "gross toxicity as determined by changes in weight", "setting": "[3]; M109 tumor mice (FIG. 13), 2 μmol/kg TIW, 2 wks", "result": "not accompanied by any observed gross toxicity"}, {"measurement": "weight loss or major organ tissue degeneration", "setting": "[3]; nu/nu mice with KB tumors (FIG. 6)", "result": "apparent absence of weight loss or major organ tissue degeneration"}, {"measurement": "half-life", "setting": "[4]", "result": "~20", "unit": "h"}, {"measurement": "serum binding in various species", "setting": "[5]", "result": "low serum binding"}, {"measurement": "dose at which toxicity begins, as determined by changes in weight", "setting": "[6]", "result": "≥ 2.5", "unit": "µmol/kg"}]}
{"smiles": "CCCC(=O)OCN(C(=O)[C@@H](NC(=O)[C@H]1CCCCN1C)C(C)CC)[C@H](C[C@@H](OC(C)=O)c1nc(C(=O)N[C@@H](Cc2ccc(O)cc2)C[C@H](C)C(=O)O)cs1)C(C)C", "note": "(stereo partly drawn) [tubulysin B, reference compound]", "values": [{"measurement": "toxicity (dosing terminated early in each cohort)", "setting": "[3]; FIG. 9 and 10, 0.1, 0.2, 0.5 μmol/kg TIW", "result": "excessive toxicity"}, {"measurement": "change in percent body weight", "setting": "[3]; FIG. 10, 0.1, 0.2, 0.5 μmol/kg TIW, compared to controls", "result": "dramatic change"}, {"measurement": "complete or partial responses", "setting": "[7]", "result": "0/5"}]}
